# Experimental data taken from patent publication US7241873B2, “Recombinant anti-osteopontin antibody and use thereof” (Juridical Foundation the Chemo-sero-therapeutic Research …, priority 2001, dated 2007).
# How the values were obtained:
# [1] = system: mouse collagen arthritis model; experiment: Mouse collagen arthritis model (arthritogenic antibody cocktail/LPS); assay type: in vivo; settings: text summary of Tables 6 to 9
# Experimental: For arthritis induction, an arthritogenic antibody cocktail (under the trade name of a cocktail for arthritis, Arthrogen-CIA® mAb, Arthritogenic mAb cocktail; manufactured by Iwai Chemical Pharmaceutical Co., Ltd.) recognizing four epitopes specific to collagen was used. To a mouse was intravenously administered the arthritogenic cocktail; 3 days later, LPS (100 μg) was intraperitoneally administered to thereby elicit arthritis. Arthritis was observed on day 3 after LPS dosing, which reached maximum on day 6.
# Immediately before LPS dosing and 3 days later, the M5 antibody was intravenously administered at a dose of 40 μg, 150 μg or 400 μg. As the control group, a rabbit IgG-dosed group (at a dose of 400 μg) was arranged. Additionally, the anti-mouse TNF-α antibody was intravenously administered at a dose of 200 μg/mouse immediately before LPS administration and 3 days later. As the control group, a rat IgG-dosed group (at a dose of 200 μg) was arranged. Further, MTX was orally given (at a dose of 3.2 mg/kg) once daily on the very day of LPS dosing and thereafter. Then, MTX dissolved in 5 ml of 0.5% methyl cellulose solution was used. For the control group, 5 ml of 0.5% methyl cellulose solution was arranged.
# Concerning four items, namely arthritis score, leg edema, body weight change and feed intake, assessment was done per each group of five animals.
# [2] = system: adhesion of α9-transformed SW480 cell to vitronectin; experiment: Adhesion of α9-transformed SW480 cell to vitronectin; assay type: cell-based, human; settings: 1 μg/ml vitronectin, 200 μM peptide, FIG. 2A
# [3] = system: adhesion of human fibroblast TIG-7 to CHO/OPN-a; experiment: Inhibition of TIG-7 cell adhesion to OPN; assay type: cell-based; settings: peptide 100 μg/ml, FIG. 1A
# Experimental: (§1) It was examined by the following method as to whether or not the murine monoclonal antibodies inhibited cell adhesion to OPN. First, a 96-well plate was precoated with various concentrations of the CHO/OPN-a at 4° C. overnight, which was then treated with 0.5% BSA in PBS under conditions of 37° C. for 10 minutes, so as to block non-specific adhesion. A human fibroblast TIG-7 or SW480 cell transformed with the cDNA of an integrin subunit α9 (referred to as “α9-transformed SW480 cell” hereinafter) was suspended in D-MEM containing 0.25% BSA; 200 μl of the resulting cell suspension (at a cell concentration of 5×10^4 cells/well) was injected in a 96-well plate precoated with the CHO/OPN-a or nOPN, in the presence or absence of various concentrations of the monoclonal antibodies or synthetic peptides, for incubation at 37° C. for one hour.
# (§2) The culture medium was discarded from the plate, and all the wells were rinsed twice with D-MEM containing 0.25% BSA. The adherent cells were fixed and stained with 0.5% crystal violet in 20% methanol for 30 minutes.
# All the wells were rinsed three times with water, and the adherent cells were then solubilized into 20% acetic acid. The resulting supernatant recovered from each well was analyzed with an immunoreader, to measure the absorbance at 590 nm to determine the relative count of the cells adhering to the well. All the assays were done in a triplicate fashion, and at least three independent experiments were performed. The values shown represent mean at three independent experiments.
# [4] = system: adhesion of murine NIH 3T3 cell to mOPN/de-GST; experiment: Inhibition of NIH 3T3 cell adhesion to murine OPN; assay type: cell-based, mouse; settings: peptide 100 μg/mL, FIG. 15
# Description: It was examined by the method described in the reference (S. Kon et al., (2002): J. Cell. Biochem., 84(2), 420–432) as to whether or not the M5 antibody might inhibit cell adhesion to OPN. As the OPN, the full-length murine OPN was used, from which the GST segment had preliminarily been removed with PreScission protease (Amersham Pharmacia Biotech, Tokyo, Japan) (referred to as “mOPN/de-GST” hereinafter) was used. As the cell, murine NIH 3T3 cell was used.
# [5] = system: adhesion of α9-transformed SW480 cell to nOPN; experiment: Adhesion of α9-transformed SW480 cell to nOPN; assay type: cell-based, human; settings: 3 μg/ml nOPN, combination of 200 μM GRGDSP peptide and anti-α9β1 antibody Y9A2, FIG. 2A
# Experimental: as §1, §2
# All the wells were rinsed three times with water, and the adherent cells were then solubilized into 20% acetic acid. The resulting supernatant recovered from each well was analyzed with an immunoreader, to measure the absorbance at 590 nm to determine the relative count of the cells adhering to the well. […]
# [6] = target: BSA-crosslinked osteopontin peptide (BSA-CVDTYDGRGDSVVYGLRS) (Homo sapiens, UniProt P10451); experiment: ELISA binding to osteopontin peptide
# Description: Based on the concentrations of the humanized 2K1 antibody and the chimera 2K1 antibody as determined in Example 13, the binding activities of the humanized 2K1 antibody and the chimera 2K1 antibody with osteopontin peptide (CVDTYDGRGDSVVYGLRS) (SEQ ID NO: 1) were compared with reference to the ELISA of Kon et al. (Journal of Cellular […]: 420–432 (2002)).
# Dilution series of the humanized 2K1 antibody and the chimera 2K1 antibody reacted on a microtiter plate with BSA-crosslinked osteopontin peptide (BSA-CVDTYDGRGDSVVYGLRS)(SEQ ID NO: 1) immobilized thereon. Then, the antibodies bound to BSA-CVDTYDGRGDSVVYGLRS (SEQ ID NO: 1) reacted with protein A-HRP, and finally with TMB (Dojindo Corporate), to measure the absorbance at a wavelength of 450 nm.
# Additionally, reaction on a plate with only BSA immobilized thereon as a negative control was also measured in the same manner.
# As a negative control, additionally, the binding activity of the chimera 2K1 antibody to BSA (open circle) and the binding activity of the humanized 2K1 antibody to BSA (open square) are also shown.
# [7] = target: partial peptide GRGDSVVYGLR of the human osteopontin (Homo sapiens, UniProt P10451); experiment: KD assay on BIACORE-2000; assay type: binding; settings: compared with murine 2K1 antibody
# Experimental: The KD value of the chimera 2K1 antibody was assayed in the following manner. First, a partial peptide GRGDSVVYGLR (residues 7–17 of SEQ ID NO: 1) of the human osteopontin was biotinylated with a biotinylation kit (Dojindo Corporate). A sensor chip SA was set on BIACORE-2000, to bind 23 RU of a ligand (Bin-GRGDSVVYGLR)(residues 7–17 of SEQ ID NO: 1). […] The data of these sensor grams were analyzed by global fitting at 1:1 (Langmuir) binding by a BIACORE analysis software BIA Evaluation Version 3.0. FIG. 6a is a sensor gram at various concentrations of the murine 2K1 antibody. FIG. 6b is a sensor gram at various concentrations of the chimera 2K1 antibody.
# [8] = system: human peripheral monocyte migration toward thrombin-cleaved OPN; experiment: Migration of TNF-α-activated human peripheral monocyte toward thrombin-cleaved OPN (chimera 2K1); assay type: cell-based; settings: for Mean migrating cell counts per 1 mm^3 (monocyte): thrombin-cleaved OPN 10 μg/mL
# Experimental: First, the blood drawn out from a normal subject with heparin was diluted 2-fold with an RPMI 1640 culture medium. The diluted blood was overlaid on the Ficoll-Paque (Pharmacia), which was then centrifuged at 400×g at ambient temperature for 30 minutes. A white layer observed in the interface between the blood plasma and Ficoll-Paque was recovered and used as a monocyte. The monocyte thus obtained was overnight cultured with human TNF-α (20 ng/mL). The resulting activated monocyte was used for a migration experiment.
# The migration experiment was done, using a 48-well microchemotaxis chamber (Neuro Probe Inc.). Human OPN reacted with bovine thrombin (Sigma) at 37° C. for 2 hours, for cleavage. After various concentrations of the 2K1 chimera antibody were added to the resulting human […] and left to stand at 37° C. for 15 minutes, the resulting mixture was added to the lower chamber (the final human OPN concentration was 10 μg/mL). Placing a polycarbonate filter (pore size of 5 μm) thereon, 50 μl of a cell suspension (2×10^6 cells/mL) was added to the upper chamber.
# After culturing in the presence of 5% CO2 at 37° C. for 2 hours, the polycarbonate filter was removed, while […] with Diff-Quick (Baxter). The cells on the surface of the […] filter were counted at a magnification×40. The results are shown as mean cell count (cells/mm^3)±SD in 6 wells.
molecule,measurement,setting,value
CN(Cc1cnc2nc(N)nc(N)c2n1)c1ccc(C(=O)N[C@@H](CCC(=O)O)C(=O)O)cc1 [MTX],"effect on arthritis score, onset of arthritis and leg edema (therapeutic effect)",[1],almost no pharmaceutical efficacy
GRGDSP [reference compound],inhibition of adhesion between vitronectin and α9-transformed SW480 cell,[2],inhibited
same,inhibition of TIG-7 adhesion to OPN,[3],apparently inhibited
same,inhibition of NIH 3T3 adhesion to mOPN/de-GST,[4],apparently inhibited
same,inhibition of adhesion of α9-transformed SW480 cell to nOPN,[5],inhibited
"chimera 2K1 antibody: VH and VL of murine 2K1 antibody (SEQ ID NO: 19, 20) conjugated to human Igγ1 and human Igκ (antibody, V domains shown, human IgG1 and kappa constant regions; Mouse) VH: QVQLQQSGAELVRPGASVKLSCKALGYTFTDYEMHWVKQTPVHGLEWIGAIHPGRGGTAYNQKFKGKATLTADKSSSTAYMELSSLTSEDSAVYYCTRITGYFDVWGAGTTVTVSS VL: DVLMTQTPLSLPVSLGDQASISCRSSQSIVHSNGNTYLEWYLQKPGQSPKLLIYKVSNRFSGVPDRFSGSGSGTDFTLKISRVEAEDLGVYYCFQGSHVPLTFGAGTKLELKR",binding activity to BSA-CVDTYDGRGDSVVYGLRS,"[6]; ELISA, absorbance 450 nm, FIG. 13",had binding activities
same,binding activity to BSA (negative control plate),"[6]; ELISA, plate with only BSA immobilized",not to BSA
same,comparison of binding activities of both antibodies to BSA-CVDTYDGRGDSVVYGLRS,[6]; humanized versus chimera 2K1 antibody,at the same level
same,reduction of the affinity due to the chimera preparation,[7],No reduction
same,inhibition of migration of TNF-α-activated human peripheral neutrophil and monocyte toward thrombin-cleavage-type OPN,[8]; summary of Table 3,inhibited
same,Mean migrating cell counts per 1 mm^3 (monocyte),[8]; antibody 12.5 μ/mL,1010.0 ± 59.1 counts per 1 mm^3
same,Mean migrating cell counts per 1 mm^3 (monocyte),[8]; antibody 25 μ/mL,1153.3 ± 96.2 counts per 1 mm^3
same,Mean migrating cell counts per 1 mm^3 (monocyte),[8]; antibody 50 μ/mL,895.0 ± 78.0 counts per 1 mm^3
same,Mean migrating cell counts per 1 mm^3 (monocyte),[8]; antibody 100 μ/mL,821.7 ± 50.2 counts per 1 mm^3
same,Mean migrating cell counts per 1 mm^3 (monocyte),[8]; antibody 250 μ/mL,865.0 ± 64.9 counts per 1 mm^3
same,Mean migrating cell counts per 1 mm^3 (monocyte),[8]; antibody 500 μ/mL,830.0 ± 44.1 counts per 1 mm^3
